Assay: Standard 12α-HSDH activity determination (NADP+-dependent oxidation of cholic acid, absorption at 340 nm)
Assay type: biochemical
Set-up: unit not given here
Details: cell lysate
Experimental: The activity is defined as follows: 1 U of the enzyme corresponds to the amount of enzyme which catalyzes the reaction of 1 μmol/min of a 5 mM cholic acid solution in potassium phosphate buffer (50 mM, pH 8.0) at room temperature (i.e. about 20° C.-23° C.).
For the activity determination, 790 μl of potassium phosphate buffer (50 mM, pH 8.0), […] of cholic acid (50 mM in potassium phosphate buffer (50 mM, pH 8.0)) and 10 μl of enzyme solution to be measured were mixed in a cuvette. 100 μl of NADP^+ (2.5 mM) was added at the start of the reaction and the increase in the absorption at 340 nm was determined photometrically. The gradient over 30 s was determined at RT. Determination of the activity took place according to the Lambert-Beer's law.

[1] = E. coli BL21 (DE3), expression period 4 h
[2] = E. coli BL21 (DE3), expression period 22 h
[3] = E. coli Rosetta (DE3), expression period 4 h
[4] = E. coli Rosetta (DE3), expression period 22 h

Molecule | Activity [of culture medium] [1] | Activity [of culture medium] [2] | Activity [of culture medium] [3] | Activity [of culture medium] [4]
HSDH_long: long version of 12α-HSDH from Clostridium sp. group P strain 48-50, SEQ ID NO: 2, recombinantly expressed in E. coli (protein, listed as Clostridium sp.) MDFIDFKEMGRMGIFDGKVAIITGGGKAKSIGYGIAVAYAKEGANLVLTGRNEQKLLDAKEELERLYGIKVLPLAVDVTPSDESEDRVKEAVQKVIAEFGRIDVLINNAQASASGIPLSMQTKDHFDLGIYSGLYATFYYMRECYPYLKETQGSVINFASGAGLFGNVGQCSYAAAKEGIRGLSRVAATEWGKDNINVNVVCPLAMTAQLENFKLSYPEAYEKNLRGVPMGRFGDPELDIGRVCVQLGSPDFKYMSGETLTLEGGMGQRP | 12700 | 36800 | 3100 | 19500
HSDH_short: N-terminally truncated short version of 12α-HSDH from Clostridium sp. group P strain 48-50, SEQ ID NO: 4 (protein) IFDGKVAIITGGGKAKSIGYGIAVAYAKEGANLVLTGRNEQKLLDAKEELERLYGIKVLPLAVDVTPSDESEDRVKEAVQKVIAEFGRIDVLINNAQASASGIPLSMQTKDHFDLGIYSGLYATFYYMRECYPYLKETQGSVINFASGAGLFGNVGQCSYAAAKEGIRGLSRVAATEWGKDNINVNVVCPLAMTAQLENFKLSYPEAYEKNLRGVPMGRFGDPELDIGRVCVQLGSPDFKYMSGETLTLEGGMGQRP | 12800 | 33000 | 3400 | 24300
